Experimental data: patent publication US20220356245A1
Each block holds one substance with its values, some of them ahead of it.

Legend:
[1] = biological target: human CD47 (hCD47) expressed on cells (human) (UniProt Q08722); experiment: flow cytometry, Raji cells
[2] = biological target: human CD47 (hCD47) expressed on cells (human) (UniProt Q08722); experiment: flow cytometry, Raji cells, competition with His-hSIRPα
[3] = biological target: hu-sCD47-6His; extracellular domain of human CD47 antigen with 6His-tag (human); experiment: SPR Biacore
[4] = biological target: hu-sCD47-6His; extracellular domain of human CD47 antigen with 6His-tag (human); experiment: ELISA, coated glycosylated hCD47-His
[5] = biological target: N-deglycosylated soluble hCD47-His (PNGase treated) (human); experiment: ELISA, coated N-deglycosylated hCD47-His
[6] = biological target: hu-sCD47-6His; extracellular domain of human CD47 antigen with 6His-tag (human); experiment: ELISA, one-site binding saturation fit, glycosylated hCD47
[7] = biological target: N-deglycosylated soluble hCD47-His (PNGase treated) (human); experiment: ELISA, one-site binding saturation fit, deglycosylated hCD47

humanized 5F9 (hu5F9; vh2-vl2) (antibody), sequence (VH): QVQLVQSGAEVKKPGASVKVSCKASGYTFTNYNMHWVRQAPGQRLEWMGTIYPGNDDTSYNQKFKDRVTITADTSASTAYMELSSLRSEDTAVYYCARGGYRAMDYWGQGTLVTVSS
humanized 5F9 (hu5F9; vh2-vl2) (antibody), sequence (VL): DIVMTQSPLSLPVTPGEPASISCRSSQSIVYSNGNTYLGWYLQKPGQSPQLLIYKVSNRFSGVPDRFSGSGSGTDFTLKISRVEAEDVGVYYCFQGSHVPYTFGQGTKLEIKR
B6H12 (mouse IgG1, Abcam) (antibody), sequence (VH): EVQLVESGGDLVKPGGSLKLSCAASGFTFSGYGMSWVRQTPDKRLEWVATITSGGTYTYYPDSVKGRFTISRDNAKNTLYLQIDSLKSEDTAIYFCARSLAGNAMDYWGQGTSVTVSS
B6H12 (mouse IgG1, Abcam) (antibody), sequence (VL): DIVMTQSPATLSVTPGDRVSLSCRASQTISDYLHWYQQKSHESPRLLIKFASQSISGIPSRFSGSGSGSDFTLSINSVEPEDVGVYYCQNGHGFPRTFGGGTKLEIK

- EC50 [1]: 2.93 µg/mL
Substance: B6H12 (mouse IgG1, Abcam) (antibody)

- IC50 [2]: 0.209 µg/mL
Substance: chimeric 5F9 (c5F9) (antibody)

- Kd [3]: 0.73 nM
- EC50 [4]: 0.0547 nM
- EC95 [4]: 1.96 nM
- EC50 [5]: 0.254 nM
- EC95 [5]: 54 nM
- Bmax [6]: 2.66 OD value
- equilibrium binding constant [6]: 49 pM
- Bmax2 [7]: 1.4 OD value
- equilibrium binding constant [7]: 129 pM
Substance: humanized 5F9 (hu5F9; vh2-vl2) (antibody)
